Target: RFX5 DBD (Homo sapiens) (UniProt P48382)
Experiment: EMSA
Conditions: KD values only in figure; hmC/mC CpG; EMSA: 20 mM HEPES, 30 mM KCl, 1 mM EDTA, 1 mM (NH4)2SO4, 0.2% Tween 20, 1 mM DTT, 5 uM dA:dT competitor, 2 nM DNA, 20 min, 21 C (pH not stated); pulldown: 50 mM

RFX5 DBD (Homo sapiens), sequence (P48382 75-168): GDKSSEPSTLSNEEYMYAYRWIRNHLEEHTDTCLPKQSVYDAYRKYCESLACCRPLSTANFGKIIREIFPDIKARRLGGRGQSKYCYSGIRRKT

Substance: X-box 1 probe hmC/mC
- binding signal (fold weaker than mC/mC (KD)): 2.5

— paper PMC13042984
